Measured values from patent publication US20220169693A1, “Screening Assays, Modulators and Modulation of Intracellular Signalling Mediated by Immunoglobulin Superfamily Cell Adhesion Molecules” (Monash University, priority 2018, published 2022).

Assays:
[1] = target: T1, cytosolic tail of ALCAM, ALCAM551-583 (Homo sapiens, UniProt Q13740); assay: Ang II-induced ICAM-1 expression in ARPE cells transfected with cytosolic tail of ALCAM; assay type: cell-based; conditions: Ang II 1 μM
T1 construct: corresponds to residues 551-583 of ALCAM, with initial Methionine already present; expressed in transfected cells; host or cells: human ARPE (adult retinal pigment epithelial) cells; insert in pCIneo
T1 sequence (Q13740 551-583 limits assumed): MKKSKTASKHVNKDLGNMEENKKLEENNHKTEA
Method: (§1) Adult retinal pigment epithelial (ARPE) cells were cultured in Dulbecco's modified Eagle's medium (DMEM)/F12 endothelial cell growth supplement (ECGS) supplemented media. Chinese Hamster Ovary (CHO) cells were cultured using F12 media (10% FCS with 2 mM glutamine). Human microvascular endothelial cells (HMEC) were cultured in MCDB 131 medium (10% FCS with 10 mM glutamine, EGF and hydrocortisone).
(§2) Oligonucleotides were designed and ordered to generate the ALCAM, BCAM and MCAM intracellular (cytosolic) domains. These included a 5′ NheI site, Kozak sequence and initiating Methionine and then DNA sequences corresponding to ALCAM residues 552-583, BCAM residues 569-628 and MCAM residues 584-637 respectively (Note that as residue 551 of ALCAM is Methionine, the cytosolic tail of ALCAM effectively corresponded to residues 551-583). […]
(§3) After 2 hours of exposure to Ang II (1 μM) cells were placed in Trizol, mRNA extracted and cDNA synthesized. Changes in the gene expression of the NFκB subunit, p65 (RelA) or NFκB-activated target genes (e.g ICAM-1) were estimated by quantitative real-time RT-PCR, performed using the TaqMan system based on real-time detection of accumulated fluorescence (ABI Prism 7700, Perkin-Elmer Inc, PE Biosystems, Foster City, Calif., USA). […]

[2] = target: T2, full length murine ALCAM1-583 (Mus musculus, UniProt Q61490); assay: S100A8/A9-induced PCNA expression in CHO cells transfected with full length murine ALCAM; assay type: cell-based; conditions: S100A8/A9 1 μM 2 h, co-transfection (FIG. 4A)
T2 construct: host or cells: AT1R-CHO (CHO stably transfected with human AT1R-Rluc8), transient transfection; untagged clone in pCMV6
T2 sequence (Q61490 28-583): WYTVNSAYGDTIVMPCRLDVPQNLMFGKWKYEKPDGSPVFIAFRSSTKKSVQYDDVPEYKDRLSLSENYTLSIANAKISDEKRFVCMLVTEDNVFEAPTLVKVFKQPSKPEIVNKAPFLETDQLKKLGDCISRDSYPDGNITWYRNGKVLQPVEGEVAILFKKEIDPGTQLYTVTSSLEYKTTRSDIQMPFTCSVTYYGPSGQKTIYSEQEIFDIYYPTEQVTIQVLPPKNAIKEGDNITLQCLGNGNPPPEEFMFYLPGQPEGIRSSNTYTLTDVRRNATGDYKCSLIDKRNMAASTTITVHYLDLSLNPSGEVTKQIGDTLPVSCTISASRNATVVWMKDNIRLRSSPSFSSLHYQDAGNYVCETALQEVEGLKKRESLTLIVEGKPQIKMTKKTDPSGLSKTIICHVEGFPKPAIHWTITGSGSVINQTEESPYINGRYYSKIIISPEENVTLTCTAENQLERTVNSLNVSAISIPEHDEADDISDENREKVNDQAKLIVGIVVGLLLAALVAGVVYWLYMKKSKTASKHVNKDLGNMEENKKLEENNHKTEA
Method: as §1
as §2, with “551-583). The pCIneo parental vector was digested with NheI and NotI restriction enzymes, and the DNA of the fragments of the ALCAM, BCAM and MCAM tails/cytosolic domains were ligated into the digested plasmid.” for “551-583).”
as §3, with “After 2 hours of exposure to Ang II (1 μM) cells were placed in Trizol, mRNA extracted and cDNA synthesized.” left out

[3] = target: T3, cytosolic tail of MCAM, MCAM584-637 (Homo sapiens, UniProt P43121); assay: Ang II-induced ICAM-1 expression in ARPE cells transfected with cytosolic tail of MCAM; assay type: cell-based; parameters: corresponds to residues 584-637 of MCAM plus an initiating Methionine; initiating Methionine (N); expressed in transfected cells; host or cells: human ARPE (adult retinal pigment epithelial) cells; insert in pCIneo; conditions: Ang II 1 μM, co-transfection (FIG. 2B)
T3 sequence (P43121 with tags, fused parts or gaps): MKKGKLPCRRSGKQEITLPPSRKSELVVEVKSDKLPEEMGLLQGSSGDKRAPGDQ
Method: as §1, §2, §3

[4] = target: T4, human ALCAM (ALCAM1-583, cytosolic tail ALCAM551-583) (Homo sapiens, UniProt Q13740); assay: Ang II-induced p65/PCNA expression in AT1R-CHO cells transfected with human ALCAM (full length or cytosolic tail); assay type: cell-based; conditions: Ang II 1 μM, co-transfection (FIG. 3G, 1E)
T4 construct: expressed in transfected cells; host or cells: AT1R-CHO (CHO stably transfected with human AT1R-Rluc8), transient transfection
T4 sequence (Q13740 551-583): T1 sequence (Q13740 551-583 limits assumed)
Method: as §1
(§4) 100 ng of AT1R-Rluc8 construct was transfected into CHO cells using Lipofectamine 2000 (Thermo). Stable transfectants were selected using G418. AT1R-CHO were then transiently transfected with the IgSF CAM and/or RAGE constructs using Lipofectamine 2000 (Invitrogen) and incubated for 16h.
(§5) Oligonucleotides were designed and ordered to generate the ALCAM, BCAM and MCAM intracellular (cytosolic) domains. These included a 5′ NheI site, Kozak sequence and initiating Methionine and then DNA sequences corresponding to ALCAM residues 552-583, BCAM residues 569-628 and MCAM residues 584-637 respectively (Note that as residue 551 of ALCAM is Methionine, the cytosolic tail of ALCAM effectively corresponded to residues 551-583). The pCIneo parental vector was digested with NheI and NotI restriction enzymes, and the DNA of the fragments of the ALCAM, BCAM and MCAM tails/cytosolic domains were ligated into the digested plasmid. After transformation and recovery, colonies were screened and individual clones sequenced. The sequence of the insert was confirmed by DNA sequencing (Micromon, Monash University). A full-length clone of Mouse ALCAM (BC027280) was purchased from Origene. The untagged clone was supplied in the vector pCMV6. Overlapping DNA sequences were ordered to generate the ALCAM559-580 fragment oligonucleotide. These included a 5′ NheI site, Kozak sequence and initiating Methionine and then DNA sequences corresponding to ALCAM residues 559-580. The pCIneo parental vector was digested with NheI and NotI restriction enzymes, and the ALCAM559-580 construct DNA was ligated into the digested plasmid. After transformation and recovery, colonies were screened and individual clones sequenced.
(§6) After 2 hours of exposure to Ang II (1 μM) cells were placed in Trizol, mRNA extracted and cDNA synthesized. Changes in the gene expression of the NFκB subunit, p65 (RelA) or NFκB-activated target genes (e.g ICAM-1) were estimated by quantitative real-time RT-PCR, performed using the TaqMan system based on real-time detection of accumulated fluorescence (ABI Prism 7700, Perkin-Elmer Inc, PE Biosystems, Foster City, Calif., USA). Gene expression was normalized to 18S mRNA and reported as fold change compared to the level of expression in untreated control mice/cells, which were given an arbitrary value of 1.

[5] = test system: AT1R-CHO cells; assay: p65 expression in AT1R-CHO cells expressing the truncated construct alone; assay type: cell-based, Chinese Hamster; conditions: for induction of p65 expression by Ang II when the construct alone is expressed: AT1R-CHO cells, Ang II 1 μM (FIG. 3A, 5A, 5B); for induction of p65 expression following exposure to S100A8/9 when the construct alone is expressed: S100A8/9 1 μM (FIG. 4A)
Method: as §1, §4, §5, §6

[6] = target: T2, full length murine ALCAM1-583; assay: Ang II-induced p65/PCNA expression in AT1R-CHO cells transfected with full length murine ALCAM (qRT-PCR); assay type: cell-based; conditions: Ang II 1 μM 2 h, co-transfection of the construct, vs pCIneo (FIG. 3B, 5B)
Method: as §1, §4
as §5, with “Overlapping DNA sequences were ordered to generate the ALCAM559-580 fragment oligonucleotide. These included a 5′ NheI site, Kozak sequence and initiating Methionine and then DNA sequences corresponding to ALCAM residues 559-580. The pCIneo parental vector was digested with NheI and NotI restriction enzymes, and the ALCAM559-580 construct DNA was ligated into the digested plasmid. After transformation and recovery, colonies were screened and individual clones sequenced.” left out
as §3

[7] = target: T5, cytosolic tail of BCAM, BCAM569-628 (Homo sapiens, UniProt P50895); assay: Ang II-induced ICAM-1 expression in ARPE cells transfected with cytosolic tail of BCAM; assay type: cell-based; parameters: corresponds to residues 569-628 of BCAM plus an initiating Methionine; initiating Methionine (N); expressed in transfected cells; host or cells: human ARPE (adult retinal pigment epithelial) cells; insert in pCIneo; conditions: Ang II 1 μM, treatment with oligopeptide (FIG. 2C)
T5 sequence (P50895 with tags, fused parts or gaps): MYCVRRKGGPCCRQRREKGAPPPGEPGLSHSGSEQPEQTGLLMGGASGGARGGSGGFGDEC
Method: as §1, §2, §3

[8] = target: T3, cytosolic tail of MCAM, MCAM584-637; assay: Ang II-induced p65 expression in AT1R-CHO cells transfected with cytosolic tail of MCAM; assay type: cell-based; parameters: corresponds to residues 584-637 of MCAM plus an initiating Methionine; initiating Methionine (N); expressed in transfected cells; host or cells: AT1R-CHO (CHO stably transfected with human AT1R-Rluc8); insert in pCIneo; conditions: Ang II 1 μM, co-transfection (FIG. 3I)
Method: as §1, §4
(§7) Oligonucleotides were designed and ordered to generate the ALCAM, BCAM and MCAM intracellular (cytosolic) domains. […]
as §3

[9] = target: T6, cytosolic tail of human CADM4, CADM4346-388 (Homo sapiens, UniProt Q8NFZ8); assay: Ang II-induced p65 expression in AT1R-CHO cells transfected with cytosolic tail of CADM4; assay type: cell-based; conditions: Ang II 1 μM, co-transfection (FIG. 3K)
T6 construct: initiating Methionine (N); expressed in transfected cells; host or cells: AT1R-CHO (CHO stably transfected with human AT1R-Rluc8), transient transfection
T6 sequence (Q8NFZ8 with tags, fused parts or gaps): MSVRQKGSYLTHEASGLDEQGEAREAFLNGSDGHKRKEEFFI
Method: as §1, §4, §6

[10] = target: T7, cytosolic tail of human EpCAM, EpCAM289-314 (Homo sapiens, UniProt P16422); assay: Ang II-induced p65 expression in AT1R-CHO cells transfected with cytosolic tail of EpCAM; assay type: cell-based; conditions: Ang II 1 μM, co-transfection (FIG. 3J)
T7 construct: corresponds to residues 289-314 of EpCAM plus an initiating Methionine; initiating Methionine (N); expressed in transfected cells; host or cells: AT1R-CHO (CHO stably transfected with human AT1R-Rluc8), transient transfection
T7 sequence (P16422 with tags, fused parts or gaps limits assumed): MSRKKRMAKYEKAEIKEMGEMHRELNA
Method: as §1, §4, §6

[11] = target: T5, cytosolic tail of BCAM, BCAM569-628; assay: Ang II-induced p65 expression in AT1R-CHO cells transfected with cytosolic tail of BCAM; assay type: cell-based; parameters: corresponds to residues 569-628 of BCAM plus an initiating Methionine; initiating Methionine (N); expressed in transfected cells; host or cells: AT1R-CHO (CHO stably transfected with human AT1R-Rluc8); insert in pCIneo; conditions: Ang II 1 μM, co-transfection (FIG. 3H)
Method: as §1, §4, §7, §3

Row | Sequence | NFKB-dependent induction of ICAM-1 gene expression by Ang II via ALCAM551-583 ([1]; co-transfection (FIG. 2A)) | ligand-dependent signalling (PCNA expression) via murine ALCAM activated by S100A8/A9 [2] | NFKB-dependent induction of ICAM-1 gene expression by Ang II via MCAM584-637 [3] | induction of p65-NFκB expression by Ang II via transactivation of the cytosolic tail of human ALCAM, ALCAM551-583 [4] | induction of p65 expression by Ang II when the construct alone is expressed [5] | induction of p65 expression following exposure to S100A8/9 when the construct alone is expressed [5] | induction of p65-NFκB expression by Ang II via AT1R-dependent transactivation of full length murine ALCAM1-583 [6] | NFKB-dependent induction of ICAM-1 gene expression by Ang II via BCAM569-628 [7] | proinflammatory signalling (ICAM-1) induced by Ang II mediated by the cytosolic tail of ALCAM ([1]; treatment with oligopeptide (FIG. 2C)) | induction of p65-NFκB expression by Ang II via transactivation of MCAM584-637 [8] | induction of p65-NFκB expression by Ang II via transactivation of CADM4346-388 [9] | induction of p65-NFκB expression by Ang II via transactivation of EpCAM289-314 [10] | induction of p65-NFκB expression by Ang II via transactivation of BCAM569-628 [11]
1 | MGEERKAPENQEEEEERAELNQ [RAGE370-390] | inhibited | inhibited | inhibited | inhibited | no induction of p65 expression is observed | no induction of p65 expression is observed | inhibited | – | – | – | – | – | –
2 | MLWQRRQRRGEERKAPENQEEEEERAELNQAEEPEAGESSTGGP (Synthetic peptide - Truncated amino acid sequence of human RAGE protein corresponding to residues 362 to 404 of human RAGE protein with a mutation of Serine 391 to Alanine plus an initiating methionine residue) [S391A-RAGE362-404, entire cytosolic tail of RAGE with serine391 mutated to alanine] | – | – | – | – | – | – | – | inhibited | inhibited | – | – | – | –
3 | QEEEEERAELNQ (Synthetic peptide - Truncated amino acid sequence corresponding to residues 379 to 390 of human RAGE protein) [RAGE379-390] | – | – | – | prevents induction | no induction of p65 expression is observed | no induction of p65 expression is observed | – | – | – | prevents induction | prevents induction | prevents induction | prevents induction
